Test results taken from paper PMC3563936.

Biological target: T1, Dpo4 (Y-family DNA polymerase) (Sulfolobus solfataricus, UniProt Q97W02 1-352)
T1 sequence: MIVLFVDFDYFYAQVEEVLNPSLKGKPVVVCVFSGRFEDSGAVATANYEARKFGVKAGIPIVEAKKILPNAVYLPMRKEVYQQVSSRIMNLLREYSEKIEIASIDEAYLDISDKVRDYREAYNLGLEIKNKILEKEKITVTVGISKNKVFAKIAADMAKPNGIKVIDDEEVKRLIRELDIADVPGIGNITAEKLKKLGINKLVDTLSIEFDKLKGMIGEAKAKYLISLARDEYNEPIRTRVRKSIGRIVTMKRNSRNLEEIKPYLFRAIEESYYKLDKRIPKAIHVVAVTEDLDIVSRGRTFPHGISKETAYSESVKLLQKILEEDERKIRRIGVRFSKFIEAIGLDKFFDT
Test: X-ray crystallography

B1: 14/18-mer primer/template DNA (dsDNA)
DNA 1: GGGGGAAGGATTCC
DNA 2: TCATGGAATCCTTCCCCC
Does B1 bind?
Result: binds
